In the Human Domainome abundance scans (Beltran et al. 2025):
± gives the uncertainty stated by the source.

Assay: abundance fitness (aPCA) (normalised: wild type 0, dead -1); higher = more abundant; growth selection in yeast, the domain comes from the species named
Conditions: Homo sapiens

| Substance | abundance fitness |
| --- | --- |
| Transcriptional activator Myb S202R, P10242 | -0.144 ± 0.063 |
| Transcriptional activator Myb S202T, P10242 | 0.012 ± 0.11 |
| Transcriptional activator Myb S202V, P10242 | -0.001 ± 0.064 |
| Transcriptional activator Myb S202W, P10242 | -0.211 ± 0.083 |
| Transcriptional activator Myb S202Y, P10242 | -0.218 ± 0.17 |
| Transcriptional activator Myb S203A, P10242 | -0.01 ± 0.085 |
| Transcriptional activator Myb S203C, P10242 | -0.112 ± 0.094 |
| Transcriptional activator Myb S203D, P10242 | -0.079 ± 0.15 |
| Transcriptional activator Myb S203E, P10242 | 0.079 ± 0.16 |
| Transcriptional activator Myb S203F, P10242 | -0.29 ± 0.1 |
| Transcriptional activator Myb S203G, P10242 | 0.072 ± 0.066 |
| Transcriptional activator Myb S203H, P10242 | -0.264 ± 0.12 |
| Transcriptional activator Myb S203K, P10242 | 0.14 ± 0.19 |
| Transcriptional activator Myb S203L, P10242 | -0.042 ± 0.094 |
| Transcriptional activator Myb S203M, P10242 | -0.054 ± 0.15 |
| Transcriptional activator Myb S203N, P10242 | -0.108 ± 0.1 |
| Transcriptional activator Myb S203P, P10242 | -0.139 ± 0.12 |
| Transcriptional activator Myb S203Q, P10242 | 0.061 ± 0.13 |
| Transcriptional activator Myb S203R, P10242 | -0.145 ± 0.074 |
| Transcriptional activator Myb S203T, P10242 | 0.006 ± 0.1 |
| Transcriptional activator Myb S203V, P10242 | 0.055 ± 0.082 |
| Transcriptional activator Myb S203W, P10242 | -0.015 ± 0.097 |

| Substance | abundance fitness |
| --- | --- |
| Transcriptional activator Myb S203Y, P10242 | -0.113 ± 0.15 |
| Transcriptional activator Myb T145A, P10242 | -0.066 ± 0.061 |
| Transcriptional activator Myb T145C, P10242 | -0.218 ± 0.16 |
| Transcriptional activator Myb T145D, P10242 | 0.144 ± 0.15 |
| Transcriptional activator Myb T145E, P10242 | 0.055 ± 0.12 |
| Transcriptional activator Myb T145F, P10242 | -0.123 ± 0.25 |
| Transcriptional activator Myb T145G, P10242 | -0.091 ± 0.061 |
| Transcriptional activator Myb T145I, P10242 | 0.228 ± 0.14 |
| Transcriptional activator Myb T145L, P10242 | -0.122 ± 0.13 |
| Transcriptional activator Myb T145M, P10242 | 0.117 ± 0.12 |
| Transcriptional activator Myb T145N, P10242 | -0.179 ± 0.26 |
| Transcriptional activator Myb T145P, P10242 | -0.212 ± 0.12 |
| Transcriptional activator Myb T145Q, P10242 | -0.171 ± 0.15 |
| Transcriptional activator Myb T145R, P10242 | -0.232 ± 0.071 |
| Transcriptional activator Myb T145S, P10242 | -0.042 ± 0.077 |
| Transcriptional activator Myb T145V, P10242 | -0.007 ± 0.068 |
| Transcriptional activator Myb T145W, P10242 | -0.318 ± 0.1 |
| Transcriptional activator Myb T145Y, P10242 | -0.114 ± 0.23 |
| Transcriptional activator Myb T148A, P10242 | -0.286 ± 0.039 |
| Transcriptional activator Myb T148D, P10242 | -0.348 ± 0.043 |
| Transcriptional activator Myb T148E, P10242 | -0.443 ± 0.065 |
| Transcriptional activator Myb T148F, P10242 | -0.726 ± 0.046 |

| Substance | abundance fitness |
| --- | --- |
| Transcriptional activator Myb T148G, P10242 | -0.31 ± 0.038 |
| Transcriptional activator Myb T148H, P10242 | -0.556 ± 0.045 |
| Transcriptional activator Myb T148K, P10242 | -0.212 ± 0.057 |
| Transcriptional activator Myb T148L, P10242 | -0.505 ± 0.036 |
| Transcriptional activator Myb T148M, P10242 | -0.462 ± 0.052 |
| Transcriptional activator Myb T148N, P10242 | -0.271 ± 0.043 |
| Transcriptional activator Myb T148P, P10242 | -0.597 ± 0.045 |
| Transcriptional activator Myb T148Q, P10242 | -0.437 ± 0.055 |
| Transcriptional activator Myb T148R, P10242 | -0.307 ± 0.035 |
| Transcriptional activator Myb T148S, P10242 | -0.004 ± 0.034 |
| Transcriptional activator Myb T148W, P10242 | -0.901 ± 0.058 |
| Transcriptional activator Myb T148Y, P10242 | -0.766 ± 0.05 |
| Transcriptional activator Myb T177A, P10242 | -0.137 ± 0.063 |
| Transcriptional activator Myb T177C, P10242 | -0.138 ± 0.075 |
| Transcriptional activator Myb T177D, P10242 | 0.077 ± 0.095 |
| Transcriptional activator Myb T177E, P10242 | -0.013 ± 0.069 |
| Transcriptional activator Myb T177F, P10242 | -0.79 ± 0.18 |
| Transcriptional activator Myb T177G, P10242 | -0.12 ± 0.043 |
| Transcriptional activator Myb T177I, P10242 | -0.477 ± 0.093 |
| Transcriptional activator Myb T177K, P10242 | -0.204 ± 0.092 |
| Transcriptional activator Myb T177L, P10242 | -0.42 ± 0.068 |
| Transcriptional activator Myb T177M, P10242 | -0.44 ± 0.093 |

| Substance | abundance fitness |
| --- | --- |
| Transcriptional activator Myb T177N, P10242 | -0.038 ± 0.12 |
| Transcriptional activator Myb T177Q, P10242 | -0.183 ± 0.084 |
| Transcriptional activator Myb T177R, P10242 | -0.267 ± 0.047 |
| Transcriptional activator Myb T177S, P10242 | -0.003 ± 0.066 |
| Transcriptional activator Myb T177V, P10242 | -0.371 ± 0.062 |
| Transcriptional activator Myb T177W, P10242 | -0.533 ± 0.073 |
| Transcriptional activator Myb T177Y, P10242 | -0.558 ± 0.17 |
| Transcriptional activator Myb T188A, P10242 | -0.107 ± 0.046 |
| Transcriptional activator Myb T188C, P10242 | -0.037 ± 0.088 |
| Transcriptional activator Myb T188D, P10242 | -0.015 ± 0.057 |
| Transcriptional activator Myb T188E, P10242 | 0.016 ± 0.056 |
| Transcriptional activator Myb T188F, P10242 | -0.214 ± 0.14 |
| Transcriptional activator Myb T188G, P10242 | -0.058 ± 0.032 |
| Transcriptional activator Myb T188H, P10242 | -0.093 ± 0.1 |
| Transcriptional activator Myb T188I, P10242 | 0.001 ± 0.092 |
| Transcriptional activator Myb T188K, P10242 | -0.115 ± 0.061 |
| Transcriptional activator Myb T188L, P10242 | -0.049 ± 0.053 |
| Transcriptional activator Myb T188M, P10242 | 0.035 ± 0.08 |
| Transcriptional activator Myb T188N, P10242 | -0.204 ± 0.11 |
| Transcriptional activator Myb T188P, P10242 | -0.268 ± 0.099 |
| Transcriptional activator Myb T188Q, P10242 | -0.089 ± 0.078 |
| Transcriptional activator Myb T188R, P10242 | -0.166 ± 0.04 |

| Substance | abundance fitness |
| --- | --- |
| Transcriptional activator Myb T188S, P10242 | -0.048 ± 0.053 |
| Transcriptional activator Myb T188V, P10242 | -0.012 ± 0.044 |
| Transcriptional activator Myb T188W, P10242 | -0.093 ± 0.054 |
| Transcriptional activator Myb T188Y, P10242 | 0.034 ± 0.13 |
| Transcriptional activator Myb V193A, P10242 | -0.074 ± 0.069 |
| Transcriptional activator Myb V193C, P10242 | -0.138 ± 0.15 |
| Transcriptional activator Myb V193D, P10242 | -0.166 ± 0.087 |
| Transcriptional activator Myb V193E, P10242 | -0.138 ± 0.079 |
| Transcriptional activator Myb V193F, P10242 | -0.091 ± 0.21 |
| Transcriptional activator Myb V193G, P10242 | -0.041 ± 0.051 |
| Transcriptional activator Myb V193H, P10242 | -0.033 ± 0.13 |
| Transcriptional activator Myb V193I, P10242 | -0.066 ± 0.1 |
| Transcriptional activator Myb V193K, P10242 | -0.154 ± 0.14 |
| Transcriptional activator Myb V193L, P10242 | -0.089 ± 0.089 |
| Transcriptional activator Myb V193N, P10242 | -0.032 ± 0.26 |
| Transcriptional activator Myb V193P, P10242 | -0.198 ± 0.14 |
| Transcriptional activator Myb V193Q, P10242 | -0.14 ± 0.16 |
| Transcriptional activator Myb V193R, P10242 | -0.084 ± 0.059 |
| Transcriptional activator Myb V193S, P10242 | -0.11 ± 0.066 |
| Transcriptional activator Myb V193T, P10242 | -0.018 ± 0.11 |
